# B1: TPR t1 (parent)
# chain: GACCAAUCUGCCCUCAGAGCUCGAGAACAUCUUCGGAUGCAGAGGAGGCAGGCUUCGGUGGCGCGAUAGCGCCAACGUCCUCAACCUCCAAUGCAUCCCACCACAUGAUGAUGCCUGAAGAGCCUUGGUUUUUUG
# Variants of: B1
# Assay: polymerase ribozyme fitness, log enrichment relative to wild type (log ratio); higher = more active; in vitro selection for triplet polymerase activity
# Outline: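 Libraries of mutants in each subunit of a heterodimeric triplet polymerase ribozyme were generated by PCR and transcribed. In triplicate, each went through one in vitro selection round: annealing with biotinylated primer, partner subunit and triplets; frozen incubation at −7 °C; gel excision of extended constructs; streptavidin-bead capture; RT-PCR. Fitness, taken from Illumina sequencing of input and output libraries, is the logarithm of a genotype's enrichment over wild-type enrichment, averaged across replicates with inverse-variance weights. The logarithm is base 2, and genotypes needed ≥10 input reads and ≥1 read per output to be kept.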
row,Variant,polymerase ribozyme fitness (log ratio)
1,C8U C104U,0.275
2,C8U C20A A26C G60C,-5.68
3,U9A G61A A75U U96G A121G U129C G135U,0.515
4,U9C C80U A91G,-0.111
5,U9A C13G A37G C82G U116C U125A,-4.1
6,U9A C11A G42U C64U,-1.3
7,C8U G44C A83U,-0.336
8,C8U C56U C82A C97A G117C,-7.35
9,U9C U130G,-0.0168
10,U9G G10A U14G A46G G48A A66G C70U,-4.44
11,U9A C12U A27C C53U G63A A83C,-4.89
12,U9G A95C,-1.41
13,U9G G69A,-2.25
14,U9G G69C,-2.16
15,U9C C31A G44A G47U G69U C88U A118U U133G,-4.68
16,U9G A27G A37U,-0.779
17,C8U C13U A43G,-1.25
18,U9G G63C,-0.0322
19,U9C G117A,0.892
20,U9A G69C,-0.589
21,U9A G122A,0.926
22,U9A C56A A66U,-0.548
23,U9C A41C C53G,-0.677
24,U9G U38G C70U A105U,-4.46

row,Variant,polymerase ribozyme fitness (log ratio)
1,U9G C15G U81A U109G G127C,-5.35
2,U9C C13G,0.844
3,C8U G61U C70G,-4.76
4,U9A C15U A41U G60U U92C C123A,-0.568
5,U9C G122A,-0.428
6,U9A U14G C73G G117C,-1.75
7,C8U G52A A68G U81A G120U,-4.33
8,C8U C70G C97U C124U U131A,-1.27
9,U9G C13U C89A G107A C114U,-1.8
10,U9C A41C C53G A68G C73U,-5.47
11,U9G G60A U92G,-2.36
12,U9C G120C,1.46
13,U9A G10U G44U G60A C89G G127C,-2.63
14,U9G C62A,-0.542
15,U9C U92G,-1.58
16,C8U G47C G77C U129G,-3.36
17,U9C G23U C31U A41G G52A C82G A83C A121C,-6.19
18,C8U G60U U106A G122A,0.855
19,U9A G107U G117C,-6.35
20,U9G G36U G60C U78A C88A,-1.68
21,U9C C12G C28U C73U G110C,-1.73
22,U9G C56U G65C A105U U109C,-6.39
23,U9A G36C,0.19
24,U9A U32A A37U A46C C56A A111G,-4.29

row,Variant,polymerase ribozyme fitness (log ratio)
1,U9C G63U C104U,-0.467
2,U9G C20A U59A,-3.12
3,U9G U14C G51A C56U C80A,-3.92
4,U9C G69A G77A,-2.73
5,U9G C20U U87G,-0.825
6,U9G U38G U55C,-0.21
7,U9G C94A U125G,-1.1
8,U9G U14A,-0.133
9,U9G A29U G39C,-3.86
10,C8U C20U U78C C82G C123U,0.246
11,U9G A18U C40U,-0.788
12,U9A A16U C64U C73U,0.678
13,C8U C64U,0.265
14,U9C G71A,0.0862
15,U9G A37U A43U C73A C98A C124A,-7.17
16,U9G C94A,-0.976
17,U9C U112A C114G,0.928
18,U9A G44C C70G,-4.48
19,U9C G10C G17A G63A U81C U92A C94U U109G A119G,-7.69
20,U9A C22G G51A C56G C123A,-3.28
21,U9G G42A C53G,-2.45
22,C8U U14A A41C C64U G93U C115U U125G U132A U133G,-6.39
23,U9A G23A G25C A43C G51A A68G U106A C123U,-6.69
24,U9C C98G,-5.05

row,Variant,polymerase ribozyme fitness (log ratio)
1,U9G G19A A37U C70U U78A,-4.73
2,U9G C40U C114G G122A C123G,-5.42
3,C8U G36U C56U C82A C89G,-2.15
4,U9A C13A G42C A43U A100U,-3.76
5,U9A G10A C40A C70U U78C G110U C123U,-4.89
6,C8U G17C G36C,-4.86
7,C8U C22U A119U,-2.76
8,U9A C80U,0.294
9,U9A U96G,-0.342
10,U9C U112G,0.223
11,C8U C56A,0.00842
12,C8U C56U,0.434
13,U9G G57A U112A C123U G128A,-3.19
14,U9G G77U C123U,1.93
15,C8U U14A G61U C70U C104U C124A G135C,0.783
16,U9G A46U U55G A103C,-4.6
17,U9G C40A G69A C76U C114A,-6.98
18,U9G G71U A84G C89G U112G,-7.39
19,U9A C11G G93U A100G,-5.7
20,U9C A29U U129A,-2.08
21,U9A C13A G51U C94G,-4.04
22,C8U G39A C40A C62U G93U A111C,-0.367
23,C8U G69A,-1.72
24,C8U G69U,0.891

row,Variant,polymerase ribozyme fitness (log ratio)
1,U9C C11U U78C C82G A83U,-0.241
2,C8U G61A C99U,-2.24
3,U9A G52C C94U C101A,-1.78
4,U9C G60U C62U U78G C80A U112C,-1.95
5,C8U G48A C72U,0.0222
6,U9G G45U,-0.0404
7,U9A A16U G63C U132A,-0.608
8,U9A C73U G113A,-0.0138
9,C8U U87C C102U U112A G122A,-0.31
10,U9G G35U C40A G93C C114U,-5.91
11,U9C C11U G47C U96G,-3.05
12,C8U C115U G117A,-0.753
13,U9C U38G G61C C101A,-3.61
14,U9G C80U C98U G110U,-3.68
15,U9A A24G G42A G52C C72A,-3.17
16,U9C C49A A91C C104U,-1.34
17,U9A A103G,-3.9
18,U9G U38G A105U,-2.64
19,U9C C11U C101A,-0.843
20,C8U C56A U81G G120C,0.594
21,C8U C22U C53U A100U,-5.15
22,C8U C13U G35C A46U C115A,-3.54
23,U9A G61A,0.705
24,U9G A18C C40G A91C G93C C94A A105G,-5.58

row,Variant,polymerase ribozyme fitness (log ratio)
1,U9A C13U G19U U78A A91G,-3.32
2,U9A C22U C49A C86A,-5.1
3,U9G U14A G77U U92G C124U,-3.63
4,C8U G39U A66G G113C,-4.22
5,U9A C85U,0.475
6,U9C A26G A27U U54A A74G C82G,-6.24
7,U9A U32C G36C,-0.0123
8,U9G C12A U14C G44C G63A G77A G93A,-2.85
9,U9C G60A U130A,0.434
10,U9G G10U C104A,-1.09
11,C8U G71A C88U,-0.224
12,C8U C34U,-3.66
13,C8U C34G,-5.47
14,U9G C20A U54C C76U G128C,-5.03
15,C8U C15A G69A C73A C102U C123A,-5.63
16,U9C G39C G128C,-1.84
17,C8U C64A C115U,-6.79
18,U9G G35U A111U,-6.59
19,U9A C72A A83U U129A,-0.91
20,C8U G35A,-3.11
21,U9G G60U C62U C72G,-2.01
22,C8U C70U C97U C124U U131A,0.416
23,C8U U87A U112C G117U U130C,-0.73
24,U9A C22A,-4.76

row,Variant,polymerase ribozyme fitness (log ratio)
1,U9G G48U U87G C115G,0.077
2,U9A G10C C79A C101G,-2.55
3,U9A G47U A50C,-1.68
4,U9G G19U A46C C56U,-3.13
5,C8U G69U G93C,0.148
6,U9C G58A A100U,-0.581
7,U9G A43C,-1.01
8,U9G G61C,-1.59
9,U9A C20U G71U A91C G107A G117A,-6.01
10,U9C G69C,-0.746
11,U9A A108U C123G,-4.11
12,C8U C40U G52A C79G,-0.696
13,U9C C101G C104U U116C,-2.48
14,U9A G19U G42A A46G U78C,-4.66
15,U9G A18C C56G C72A G120A U130A,-2.29
16,U9C G69U G71U U92A,-3.04
17,U9G A43U G52U C72U C82A,-3
18,U9G C72G C86A,-1.02
19,U9G A27U,-3.6
20,U9C C28G G52U,-3.99
21,C8U G57U U78A C104A,-1.43
22,U9A C86A C98U,-0.22
23,U9A G44C C80A U96C,-3.87
